IKK-β protein expression level, shRNA vector control Caco-2 cells infected with the WT strain, increase over uninfected and p65 protein expression level, shRNA vector control Caco-2 cells infected with the WT strain, increase over uninfected data for 1 substance are collected here from patent US20190105401A1.

This assay has as its target Hsp60 (chaperonin 60) of human Caco-2 cells (human) (UniProt P10809). As to the kind of experiment: cell-based or functional assay.

Hsp60 (chaperonin 60) of human Caco-2 cells (human), sequence (P10809 27-573): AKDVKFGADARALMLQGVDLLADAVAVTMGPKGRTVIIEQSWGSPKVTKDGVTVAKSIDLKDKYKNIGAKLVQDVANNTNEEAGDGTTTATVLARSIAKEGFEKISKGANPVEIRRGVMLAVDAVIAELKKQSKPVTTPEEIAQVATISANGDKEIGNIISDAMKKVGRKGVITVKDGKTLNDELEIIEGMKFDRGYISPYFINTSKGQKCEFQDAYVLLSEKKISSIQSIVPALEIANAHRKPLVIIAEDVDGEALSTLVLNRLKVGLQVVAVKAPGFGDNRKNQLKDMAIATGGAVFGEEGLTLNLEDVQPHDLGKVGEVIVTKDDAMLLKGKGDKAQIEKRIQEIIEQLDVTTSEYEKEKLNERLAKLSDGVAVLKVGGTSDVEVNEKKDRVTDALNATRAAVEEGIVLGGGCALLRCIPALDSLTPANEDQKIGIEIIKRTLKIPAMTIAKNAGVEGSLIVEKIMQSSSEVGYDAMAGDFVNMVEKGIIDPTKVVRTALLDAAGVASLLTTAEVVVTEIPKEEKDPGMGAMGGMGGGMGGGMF

“Listeria adhesion protein (LAP) on L. monocytogenes F4244 (WT) bacteria (ligand)” had an IKK-β protein expression level, shRNA vector control Caco-2 cells infected with the WT strain, increase over uninfected of 54% and a p65 protein expression level, shRNA vector control Caco-2 cells infected with the WT strain, increase over uninfected of 62%.
